The text below walks through data of publication PMC12125310.

Where two headings read alike, the source gives them in different places.

Holding throughout (assay): EMSA
For one data set, the target named is T1, RGL2 (Col) (Arabidopsis thaliana (Col-0), UniProt Q8GXW1 1-547).
T1 sequence: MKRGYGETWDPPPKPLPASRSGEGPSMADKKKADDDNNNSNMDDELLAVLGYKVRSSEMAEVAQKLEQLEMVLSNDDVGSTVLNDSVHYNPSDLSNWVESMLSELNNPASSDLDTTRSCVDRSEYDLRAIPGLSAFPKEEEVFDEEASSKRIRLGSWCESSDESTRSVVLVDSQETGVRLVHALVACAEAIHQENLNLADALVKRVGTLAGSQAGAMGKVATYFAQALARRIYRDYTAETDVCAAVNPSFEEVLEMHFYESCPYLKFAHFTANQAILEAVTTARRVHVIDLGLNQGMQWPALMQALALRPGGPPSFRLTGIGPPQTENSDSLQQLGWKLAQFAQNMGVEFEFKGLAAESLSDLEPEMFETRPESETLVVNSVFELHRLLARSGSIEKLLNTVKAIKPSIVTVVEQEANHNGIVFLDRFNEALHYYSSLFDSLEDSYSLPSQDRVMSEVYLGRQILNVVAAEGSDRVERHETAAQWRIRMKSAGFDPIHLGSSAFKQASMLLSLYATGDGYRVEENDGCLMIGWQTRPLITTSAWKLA

A further data set has as its target T2, DOF6 (Col-0) (Arabidopsis thaliana (Col-0), UniProt Q9M1E6 1-245).
T2 sequence: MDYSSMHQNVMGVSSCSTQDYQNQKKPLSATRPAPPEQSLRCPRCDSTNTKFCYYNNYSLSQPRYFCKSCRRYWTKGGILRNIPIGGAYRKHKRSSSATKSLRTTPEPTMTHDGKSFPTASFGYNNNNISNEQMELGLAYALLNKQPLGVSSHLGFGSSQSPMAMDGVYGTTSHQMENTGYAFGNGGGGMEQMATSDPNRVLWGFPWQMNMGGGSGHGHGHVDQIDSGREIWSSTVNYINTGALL

For data set [1], the target named is T3, DOF6 (Col-0);RGL2 (Col) (Arabidopsis thaliana …, UniProt Q9M1E6;Q8GXW1 1-245;1-547, |).
T3 sequence 1: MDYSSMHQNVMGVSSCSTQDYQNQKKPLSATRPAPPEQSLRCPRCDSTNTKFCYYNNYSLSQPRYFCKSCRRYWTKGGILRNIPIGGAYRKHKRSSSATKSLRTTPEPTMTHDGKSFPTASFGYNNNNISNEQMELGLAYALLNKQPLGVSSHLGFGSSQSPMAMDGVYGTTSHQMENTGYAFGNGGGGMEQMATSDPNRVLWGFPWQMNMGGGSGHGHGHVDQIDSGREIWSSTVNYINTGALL
T3 sequence 2: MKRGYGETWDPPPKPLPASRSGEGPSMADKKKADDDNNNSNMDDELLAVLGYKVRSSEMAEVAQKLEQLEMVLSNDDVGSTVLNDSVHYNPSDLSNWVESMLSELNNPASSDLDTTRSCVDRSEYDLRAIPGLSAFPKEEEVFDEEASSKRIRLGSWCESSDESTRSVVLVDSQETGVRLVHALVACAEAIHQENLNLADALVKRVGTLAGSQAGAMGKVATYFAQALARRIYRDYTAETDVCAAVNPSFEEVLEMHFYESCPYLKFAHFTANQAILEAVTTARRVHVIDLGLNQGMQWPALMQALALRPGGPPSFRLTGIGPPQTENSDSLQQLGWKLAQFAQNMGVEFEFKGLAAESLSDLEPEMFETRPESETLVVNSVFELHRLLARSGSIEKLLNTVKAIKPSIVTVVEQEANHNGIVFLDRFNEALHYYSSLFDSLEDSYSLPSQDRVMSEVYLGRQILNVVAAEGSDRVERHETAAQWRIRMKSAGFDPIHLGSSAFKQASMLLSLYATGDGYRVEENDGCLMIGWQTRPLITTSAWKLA

The target of data set [2] is T3, DOF6 (Col-0);RGL2 (Col). The source holds these as a separate data set.

B1: GA20ox3 Col probe (P8) (dsDNA)
DNA 1: TAAAAAATAAAAATGAAAAGTATCATGATA
DNA 2: TATCATGATACTTTTCATTTTTATTTTTTA
As for B1, the binding result with RGL2 (Col) was “no binding”; with DOF6 (Col-0), “binds”; with DOF6 (Col-0);RGL2 (Col) [1], “binds”.

B2: GA20ox3 Tib probe (dsDNA)
DNA 1: TTTAAAAATAAAATAAAAAGTATCATGATA
DNA 2: TATCATGATACTTTTTATTTTATTTTTAAA
Consider B2, for which the binding result in the data set with DOF6 (Col-0) and with DOF6 (Col-0);RGL2 (Col) [2] was “binds” throughout.
